# Patent US20160017037A1 (GlaxoSmithKline, published 2016)
# B1: H5L7BW (antibody, human IgG1, kappa)
# heavy: not shown
# light: DIQMTQSPSSLSASVGDRVTITCKSSQSLLNPSNQKNYLAWYQQKPGKAPKLLVYFASTRDSGVPSRFSGSGSGTDFTLTISSLQPEDFATYYCLQHFGTPPTFGQGTKLEIKRTVAAPSVFIFPPSDEQLKSGTASVVCLLNNFYPREAKVQWKVDNALQSGNSQESVTEQDSKDSTYSLSSTLTLSKADYEKHKVYACEVTHQGLSSPVTKSFNRGEC
# modifications: afucosylated: no fucose on the core carbohydrate structure attached to Asn297
# notes: Same plasmids as H5L7, expressed in the BioWa POTELLIGENT (FUT8 knock-out CHO) cell line; also called afucosylated antibody H5L7BW; afucosylated H5L7
# How the values were obtained:
# [1] = molecular target: T1, recombinant soluble human FcγRIIIa F158 (human, UniProt P08637 17-208); assay: SPR ProteOn XPR36, His-tagged receptor captured on anti-poly-histidine IgG, equilibrium model
# T1 construct: also called FcγRIIIa phenylalanine F158; CD16
# Experimental: (§1) A goat anti-poly-histidine IgG was immobilised on a GLM biosensor chip by primary amine coupling. This surface was used as a capture surface for the poly-histidine tagged human Fc gamma receptors. […] The goat anti-poly-histidine IgG surface was regenerated with 100 mM phosphoric acid between interactions. The run was carried out on the ProteOn XPR36 Protein Array Interaction System at 25° C. and using HBS-EP as running buffer. Data was analysed for each receptor separately, setting a global R-max and using the Equilibrium Model inherent to the ProteOn's analysis software. Control molecules were run at the beginning and the end of the set of samples to be tested to ensure comparability of results. Data was compared from two experiments and hybrid control antibodies used as controls between experiments.
# [2] = molecular target: T2, recombinant soluble human FcγRIIIa V158 (human, UniProt P08637 17-208); assay: as above
# T2 construct: also called FcγRIIIa valine V158; CD16
# Experimental: as §1
# T2 sequence (P08637 17-208 F176V limits assumed): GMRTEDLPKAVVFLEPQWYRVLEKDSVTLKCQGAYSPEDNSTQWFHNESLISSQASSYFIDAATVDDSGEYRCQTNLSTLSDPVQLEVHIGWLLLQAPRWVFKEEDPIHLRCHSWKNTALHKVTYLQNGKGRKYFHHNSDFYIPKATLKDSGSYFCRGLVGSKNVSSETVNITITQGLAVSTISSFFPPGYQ
# T1 sequence (P08637 17-208 limits assumed): as the sequence (P08637 17-208 F176V limits assumed) above, with V160F counted along it
binder,measurement,setting,value
B1,fold improvement in affinity against H5L7,[1],~10 fold
same,fold improvement in affinity against H5L7,[2],~10 fold
